Like-named read-outs stand apart in the source and are kept apart here.
T1: human RXFP1 (human, UniProt Q9HBX9 1-757)
T1 sequence (looked up): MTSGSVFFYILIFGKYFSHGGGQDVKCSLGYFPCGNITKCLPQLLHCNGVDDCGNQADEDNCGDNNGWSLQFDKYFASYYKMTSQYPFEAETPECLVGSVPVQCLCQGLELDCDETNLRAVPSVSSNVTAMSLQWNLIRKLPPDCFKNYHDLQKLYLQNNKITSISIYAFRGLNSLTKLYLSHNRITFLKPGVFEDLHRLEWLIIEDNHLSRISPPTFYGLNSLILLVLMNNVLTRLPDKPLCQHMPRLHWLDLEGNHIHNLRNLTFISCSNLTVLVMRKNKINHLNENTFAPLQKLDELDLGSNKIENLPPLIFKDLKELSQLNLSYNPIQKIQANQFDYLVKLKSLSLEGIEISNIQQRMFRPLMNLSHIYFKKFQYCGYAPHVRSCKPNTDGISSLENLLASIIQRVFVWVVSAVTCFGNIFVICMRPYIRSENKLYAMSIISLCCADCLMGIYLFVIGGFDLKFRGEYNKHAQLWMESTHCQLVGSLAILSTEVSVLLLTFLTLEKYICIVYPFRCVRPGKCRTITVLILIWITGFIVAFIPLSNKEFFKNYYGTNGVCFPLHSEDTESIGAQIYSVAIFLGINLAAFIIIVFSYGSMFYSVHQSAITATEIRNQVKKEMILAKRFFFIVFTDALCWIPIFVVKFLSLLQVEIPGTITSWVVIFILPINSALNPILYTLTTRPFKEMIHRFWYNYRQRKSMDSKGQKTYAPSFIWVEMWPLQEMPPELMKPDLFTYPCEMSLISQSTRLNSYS


Tests used:
Assay in all cases: cell-based or functional assay
[1] = molecular target: T1, human RXFP1
[2] = molecular target: T1, human RXFP1; remark: listed apart in the source
[3] = molecular target: T1, human RXFP1; remark: listed apart in the source

Binder | Potency (cAMP, transient hRXFP1 in HEK293) [1] [nM] | Potency (cAMP, transient hRXFP1 in HEK293) [3] [nM] | further results
SEQ ID NO: 138 (Fc fusion) DKTHTCPPCPAPEAAGGPSVFLFPPKPKDTLMISRTPEVTCVVVDVSHEDPEVKFNWYVDGVEVHNAKTKPREEQYNSTYRVVSVLTVLHQDWLNGKEYKCKVSNKALAAPIEKTISKAKGQPREPQVYTLPPSRDELTKNQVSLTCLVKGFYPSDIAVEWESNGQPENNYKTTPPVLDSDGSFFLYSKLTVDKSRWQQGNVFSCSVLHEALHSHYTQKSLSLSPGKGGSDSYQEEVIKLCGRELVRAQIAICGKSTGGEGSGGEGSGGGRQLYSALANKCCKVGCTKQSLAQFC |  | 7.5 | 
SEQ ID NO: 133 (Fc fusion) DKTHTCPPCPAPEAAGGPSVFLFPPKPKDTLMISRTPEVTCVVVDVSHEDPEVKFNWYVDGVEVHNAKTKPREEQYNSTYRVVSVLTVLHQDWLNGKEYKCKVSNKALAAPIEKTISKAKGQPREPQVYTLPPSRDELTKNQVSLTCLVKGFYPSDIAVEWESNGQPENNYKTTPPVLDSDGSFFLYSKLTVDKSRWQQGNVFSCSVLHEALHSHYTQKSLSLSPGKGGSDSYQEEVIKLCGRELVRAQIAICGKSTASDAAGAEAEAGARQLYSALANKCCYVGCTKQSLAQFC |  | 30.6 | 
SEQ ID NO: 108 (Fc fusion) DKTHTCPPCPAPEAAGGPSVFLFPPKPKDTLMISRTPEVTCVVVDVSHEDPEVKFNWYVDGVEVHNAKTKPREEQYNSTYRVVSVLTVLHQDWLNGKEYKCKVSNKALAAPIEKTISKAKGQPREPQVYTLPPSRDELTKNQVSLTCLVKGFYPSDIAVEWESNGQPENNYKTTPPVLDSDGSFFLYSKLTVDKSRWQQGNVFSCSVLHEALHSHYTQKSLSLSPGEGGSDSWQEEVIKLCGRELVRAQIAICGKSTASDAAGAEAEAGARQLYSALANKCCHVGCTKQSLAQFC | 35.2 |  | 
SEQ ID NO: 135 (Fc fusion) DKTHTCPPCPAPEAAGGPSVFLFPPKPKDTLMISRTPEVTCVVVDVSHEDPEVKFNWYVDGVEVHNAKTKPREEQYNSTYRVVSVLTVLHQDWLNGKEYKCKVSNKALAAPIEKTISKAKGQPREPQVYTLPPSRDELTKNQVSLTCLVKGFYPSDIAVEWESNGQPENNYKTTPPVLDSDGSFFLYSKLTVDKSRWQQGNVFSCSVLHEALHSHYTQKSLSLSPGKGGSDSYQEEVIKLCGRELVRAQIAICGKSTGGEGSGGEGEGGGRQLYSALANKCCYVGCTKQSLAQFC |  | 29.5 | 
SEQ ID NO: 113 (Fc fusion) DKTHTCPPCPAPEAAGGPSVFLFPPKPKDTLMISRTPEVTCVVVDVSHEDPEVKFNWYVDGVEVHNAKTKPREEQYNSTYRVVSVLTVLHQDWLNGKEYKCKVSNKALAAPIEKTISKAKGQPREPQVYTLPPSRDELTKNQVSLTCLVKGFYPSDIAVEWESNGQPENNYKTTPPVLDSDGSFFLYSKLTVDKSRWQQGNVFSCSVLHEALHSHYTQKSLSLSPGEGGSDSWQEEVIKLCGRELVRAQIAICGQSTASDAAGANADAGARQLYSALANKCCHVGCTKQSLAQFC | 26 |  | 
SEQ ID NO: 110 (Fc fusion) DKTHTCPPCPAPEAAGGPSVFLFPPKPKDTLMISRTPEVTCVVVDVSHEDPEVKFNWYVDGVEVHNAKTKPREEQYNSTYRVVSVLTVLHQDWLNGKEYKCKVSNKALAAPIEKTISKAKGQPREPQVYTLPPSRDELTKNQVSLTCLVKGFYPSDIAVEWESNGQPENNYKTTPPVLDSDGSFFLYSKLTVDKSRWQQGNVFSCSVLHEALHSHYTQKSLSLSPGEGGSDSWQEEVIKLCGRELVRAQIAICGKSTASDAAGADAQAGARQLYSALANKCCHVGCTKQSLAQFC | 17.2 |  | 
SEQ ID NO: 116 (Fc fusion) DKTHTCPPCPAPEAAGGPSVFLFPPKPKDTLMISRTPEVTCVVVDVSHEDPEVKFNWYVDGVEVHNAKTKPREEQYNSTYRVVSVLTVLHQDWLNGKEYKCKVSNKALAAPIEKTISKAKGQPREPQVYTLPPSRDELTKNQVSLTCLVKGFYPSDIAVEWESNGQPENNYKTTPPVLDSDGSFFLYSKLTVDKSRWQQGNVFSCSVLHEALHSHYTQKSLSLSPGEGGSDSWQEEVIKLCGRELVRAQIAICGQSTASDAAGAQADAGARQLYSALANKCCHVGCTKQSLAQFC | 25.9 |  | 
SEQ ID NO: 134 (Fc fusion) DKTHTCPPCPAPEAAGGPSVFLFPPKPKDTLMISRTPEVTCVVVDVSHEDPEVKFNWYVDGVEVHNAKTKPREEQYNSTYRVVSVLTVLHQDWLNGKEYKCKVSNKALAAPIEKTISKAKGQPREPQVYTLPPSRDELTKNQVSLTCLVKGFYPSDIAVEWESNGQPENNYKTTPPVLDSDGSFFLYSKLTVDKSRWQQGNVFSCSVLHEALHSHYTQKSLSLSPGKGGSDSYQEEVIKLCGRELVRAQIAICGKSTASDAAGAEAEAGARQLYSALANKCCKVGCTKQSLAQFC |  | 21.6 | 
SEQ ID NO: 90 (Fc fusion) DKTHTCPPCPAPEAAGGPSVFLFPPKPKDTLMISRTPEVTCVVVDVSHEDPEVKFNWYVDGVEVHNAKTKPREEQYNSTYRVVSVLTVLHQDWLNGKEYKCKVSNKALAAPIEKTISKAKGQPREPQVYTLPPSRDELTKNQVSLTCLVKGFYPSDIAVEWESNGQPENNYKTTPPVLDSDGSFFLYSKLTVDKSRWQQGNVFSCSVLHEALHSHYTQKSLSLSPGKGGSDSWQEEVIKLCGRELVRAQIAICGKSTASDAAGAQAQAGARQLYSALANKCCHVGCTKRSLAQFC | 0.6 |  | THP1 (endogenous RXFP1) cAMP EC50 [2]: 4.4 nM; Transient HEK293 hRXFP1 cAMP EC50 [2]: 0.6 nM
SEQ ID NO: 112 (Fc fusion) DKTHTCPPCPAPEAAGGPSVFLFPPKPKDTLMISRTPEVTCVVVDVSHEDPEVKFNWYVDGVEVHNAKTKPREEQYNSTYRVVSVLTVLHQDWLNGKEYKCKVSNKALAAPIEKTISKAKGQPREPQVYTLPPSRDELTKNQVSLTCLVKGFYPSDIAVEWESNGQPENNYKTTPPVLDSDGSFFLYSKLTVDKSRWQQGNVFSCSVLHEALHSHYTQKSLSLSPGEGGSDSWQEEVIKLCGRELVRAQIAICGQSTASDAAGADANAGARQLYSALANKCCHVGCTKQSLAQFC | 24.8 |  | 

More lines, main results first:

Potency (cAMP, transient hRXFP1 in HEK293) [1] [nM] | Potency (cAMP, transient hRXFP1 in HEK293) [3] [nM] | Binder | further results
140 |  | SEQ ID NO: 367 (Fc fusion) DKTHTCPPCPAPEAAGGPSVFLFPPKPKDTLMISRTPEVTCVVVDVSHEDPEVKFNWYVDGVEVHNAKTKPREEQYNSTYRVVSVLTVLHQDWLNGKEYKCKVSNKALAAPIEKTISKAKGQPREPQVYTLPPSRDELTKNQVSLTCLVKGFYPSDIAVEWESNGQPENNYKTTPPVLDSDGSFFLYSKLTVDKSRWQQGNVFSCSVLHEALHSHYTQKSLSLSPGGGSDSWMEEVIKLCGRELVRAQIAICGKSTGGEGGGEEGGGEGGQLYSALANKCCHVGCTKRSLARFC | Transient HEK293 hRXFP1 cAMP EC50 [2]: ~150 nM
 | 4.9 | SEQ ID NO: 119 (Fc fusion) DKTHTCPPCPAPEAAGGPSVFLFPPKPKDTLMISRTPEVTCVVVDVSHEDPEVKFNWYVDGVEVHNAKTKPREEQYNSTYRVVSVLTVLHQDWLNGKEYKCKVSNKALAAPIEKTISKAKGQPREPQVYTLPPSRDELTKNQVSLTCLVKGFYPSDIAVEWESNGQPENNYKTTPPVLDSDGSFFLYSKLTVDKSRWQQGNVFSCSVLHEALHSHYTQKSLSLSPGKGGSDSYQEEVIKLCGRELVRAQIAICGKSTASDAAGAEAEAGARQLYSALANKCCHVGCTKRSLAQFC | 
 | 17.6 | SEQ ID NO: 136 (Fc fusion) DKTHTCPPCPAPEAAGGPSVFLFPPKPKDTLMISRTPEVTCVVVDVSHEDPEVKFNWYVDGVEVHNAKTKPREEQYNSTYRVVSVLTVLHQDWLNGKEYKCKVSNKALAAPIEKTISKAKGQPREPQVYTLPPSRDELTKNQVSLTCLVKGFYPSDIAVEWESNGQPENNYKTTPPVLDSDGSFFLYSKLTVDKSRWQQGNVFSCSVLHEALHSHYTQKSLSLSPGKGGSDSYQEEVIKLCGRELVRAQIAICGKSTGGEGSGGEGEGGGRQLYSALANKCCKVGCTKQSLAQFC | 
31.2 |  | SEQ ID NO: 117 (Fc fusion) DKTHTCPPCPAPEAAGGPSVFLFPPKPKDTLMISRTPEVTCVVVDVSHEDPEVKFNWYVDGVEVHNAKTKPREEQYNSTYRVVSVLTVLHQDWLNGKEYKCKVSNKALAAPIEKTISKAKGQPREPQVYTLPPSRDELTKNQVSLTCLVKGFYPSDIAVEWESNGQPENNYKTTPPVLDSDGSFFLYSKLTVDKSRWQQGNVFSCSVLHEALHSHYTQKSLSLSPGEGGSDSWQEEVIKLCGRELVRAQIAICGQSTASDAAGADAQAGARQLYSALANKCCHVGCTKQSLAQFC | 
 | 11.4 | SEQ ID NO: 137 (Fc fusion) DKTHTCPPCPAPEAAGGPSVFLFPPKPKDTLMISRTPEVTCVVVDVSHEDPEVKFNWYVDGVEVHNAKTKPREEQYNSTYRVVSVLTVLHQDWLNGKEYKCKVSNKALAAPIEKTISKAKGQPREPQVYTLPPSRDELTKNQVSLTCLVKGFYPSDIAVEWESNGQPENNYKTTPPVLDSDGSFFLYSKLTVDKSRWQQGNVFSCSVLHEALHSHYTQKSLSLSPGKGGSDSYQEEVIKLCGRELVRAQIAICGKSTGGEGSGGEGSGGGRQLYSALANKCCYVGCTKQSLAQFC | 

From patent US20250333467A1 (TECTONIC OPERATING, published 2025)
